2 molecules from publication PMC2753885 (Biochemistry, 2009) can be followed below.

Holding throughout (assay): rapid-quench phosphotransfer kinetics
Test [1] has as its target T1, SSK1 response regulator (receiver) domain, SSK1-R2 (S. cerevisiae, UniProt Q07084 495-712).
T1 sequence (looked up): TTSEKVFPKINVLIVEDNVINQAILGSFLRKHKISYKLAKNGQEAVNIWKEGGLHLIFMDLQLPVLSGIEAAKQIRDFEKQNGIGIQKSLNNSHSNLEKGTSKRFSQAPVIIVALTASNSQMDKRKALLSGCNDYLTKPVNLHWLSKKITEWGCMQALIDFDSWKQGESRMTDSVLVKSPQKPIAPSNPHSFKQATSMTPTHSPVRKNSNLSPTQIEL

Test [2] has as its target T1, SSK1 response regulator (receiver) …. The source holds these as a separate data set.
Test [3] shares this target. This is another data set of the same source.
Test [4] shares this target. The source holds these as a separate data set.
The target is the same in test [5]. This is another data set of the same source.
Test [6] shares this target. This is another data set of the same source.
Test [7] shares this target. The source holds these as a separate data set.
The target is the same in test [8]. This is another data set of the same source.
For test [9] the target is unchanged. This is another data set of the same source.
Test [10] has the same target. The source holds these as a separate data set.
For test [11], the target named is T2, YPD1, histidine-containing phosphotransfer (HPt) protein (S. cerevisiae, UniProt Q07688 1-167).
T2 sequence (looked up): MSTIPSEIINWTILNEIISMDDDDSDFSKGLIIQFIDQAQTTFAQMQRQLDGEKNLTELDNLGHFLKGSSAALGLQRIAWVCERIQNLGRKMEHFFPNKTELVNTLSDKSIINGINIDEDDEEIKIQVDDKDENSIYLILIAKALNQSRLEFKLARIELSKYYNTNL

Test [12] has as its target T2, YPD1, histidine-containing …. The source holds these as a separate data set.
The target is the same in test [13]. This is another data set of the same source.
For test [14] the target is unchanged. The source holds these as a separate data set.
For test [15] the target is unchanged. This is another data set of the same source.
The target is the same in test [16]. This is another data set of the same source.
The target is the same in test [17]. This is another data set of the same source.
For test [18] the target is unchanged. The source holds these as a separate data set.
For test [19] the target is unchanged. The source holds these as a separate data set.
For test [20] the target is unchanged. This is another data set of the same source.

In general, Kd refers to the constant that tells how readily two partners part at equilibrium. A higher Kd goes with a looser complex.

Read-outs that look alike come from different tables or passages of the source.

B1: phosphorylated YPD1, YPD1∼P (natural protein, S. cerevisiae, UniProt Q07688 1-167, looked up)
chain: MSTIPSEIINWTILNEIISMDDDDSDFSKGLIIQFIDQAQTTFAQMQRQLDGEKNLTELDNLGHFLKGSSAALGLQRIAWVCERIQNLGRKMEHFFPNKTELVNTLSDKSIINGINIDEDDEEIKIQVDDKDENSIYLILIAKALNQSRLEFKLARIELSKYYNTNL
modifications: phosphorylated (32P) by phosphotransfer from GST-SLN1-HK-R1; residue not given
For the molecule B1, the Kd in test [1] was determined as 3.8 µM; in test [2] it was 4.3 µM; in test [3], 11.5 µM; in [4], 4.4 µM; in test [5], 2.2 µM; in test [6], 2.1 µM. Further, the Kd in test [7] was found to be 3 µM; in [8], 4 µM; in [9] it was 1.4 µM; in test [10], 4.3 µM.

B2: phosphorylated SLN1 response regulator (receiver) domain, SLN1-R1∼P (domain or fragment, S. cerevisiae, UniProt P39928 1084-1220, looked up)
chain: NETSVKILVVEDNHVNQEVIKRMLNLEGIENIELACDGQEAFDKVKELTSKGENYNMIFMDVQMPKVDGLLSTKMIRRDLGYTSPIVALTAFADDSNIKECLESGMNGFLSKPIKRPKLKTILTEFCAAYQGKKNNK
modifications: phosphorylated (32P) by phosphotransfer from phospho-SLN1-HK; residue not printed for this domain
As for B2, the equilibrium dissociation constant (Kd) in test [11] is 2.8 µM; in test [12] it was 2.3 µM; in [13] it was 18 µM; in test [14] it was 3.2 µM; in [15], 2.3 µM; in test [16], 4.6 µM. The dissociation constant (Kd) amounted to 6.2 µM in [17], 10 µM in [18], 2.6 µM in [19] and 2.7 µM in test [20].
